Experimental data as given in the supplement of paper PMC10065799, “High-throughput profiling of sequence recognition by tyrosine kinases and SH2 domains using bacterial peptide display” (eLife, 2023).

test system: c-Src; assay: phosphorylation enrichment, bacterial display (enrichment ratio); higher = better substrate or ligand; peptides without Tyr show the background
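Note: 11-residue human phosphosite peptides and single-mutation variants displayed on the E. coli surface, counted by deep sequencing, each peptide's frequency after selection divided by its frequency in the unselected input library; frequency after pTyr selection over input frequency; kinase dosed for 20-30% of maximal phosphorylation in three min.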

First: DRLASDLDKVR [KRT10_Y160_Y160D]
Second: MDDKEYYSVHN [MET_Y1234_Y1230D]
The phosphorylation enrichment of the first is lower: 0.363 for the first, 0.695 for the second.

Going from ATHSRYRLNDF [CLDN14_Y233_G232R_YF] to VEQIHYIGQNE [HMOX2_Y140_R137Q], the phosphorylation enrichment rises from 0.36 to 0.452.

Going from LVMFIYDIFGM [SCN1A_Y1684_A1685D] to FSCLPYRRLAF [SLC52A2_Y305_G306R_YF], the phosphorylation enrichment falls from 6.25 to 0.902.

Going from ESMLRYDVFGG [STOX1_Y607_E608D_YF] to HNELYYEAAEH [VANGL1_Y345_E347A], the phosphorylation enrichment rises from 1.1 to 1.79.

First: SQPASYQRRFL [PPIG_Y320_L324F]
Second: VKPENYRRLDV [VHL_Y175_I180V]
The phosphorylation enrichment of the first is higher: 0.466 for the first, 0.372 for the second.

Going from KLKRSYSSPDI [USP8_Y717] to GTQGSYLLSRK [UGT3A1_Y123_C121G], the phosphorylation enrichment rises from 0.396 to 0.555.

Going from KMKGDYFRFLA [YWHAG_Y130_YF] to SNNFIYKTLGV [FAM83B_Y639_YF], the phosphorylation enrichment falls from 2.11 to 0.478.

Going from SVTGTYSPALN [TP53_Y126_C124G] to FSPGSYERETF [NF1_Y2192], the phosphorylation enrichment falls from 0.549 to 0.539.

First: TQRPYYKGGGG [TYROBP_Y112]
Second: SGETKYNPTEA [NBEAL2_Y2748_E2747K]
The phosphorylation enrichment of the first is lower: 0.438 for the first, 0.537 for the second.

First: YGCGMYSHLQG [LGR4_Y848_D844G]
Second: RRQDLYSARDL [SART1_Y249]
The phosphorylation enrichment of the first is higher: 2.87 for the first, 1.21 for the second.

Going from ILGRYYETGSI [PAX2_Y73] to KSRQIYDAYIM [GRK3_Y109_R104K], the phosphorylation enrichment rises from 0.455 to 8.25.

First: KVALLYKPFFF [POLE_Y100_P99L_YF]
Second: PIAPVYAASMV [ACAT1_Y331]
The phosphorylation enrichment of the first is lower: 1.67 for the first, 10.5 for the second.

First: IVEFAYNDKAV [PUM3_Y259_I264V_YF]
Second: PQQLWYTHEKK [UBTF_Y207]
The phosphorylation enrichment of the first is higher: 0.547 for the first, 0.473 for the second.

Going from PVRIAYGRPRG [SUGP2_Y985_D986G] to QGCGIYKDFFR [PLA2G2D_Y82_S80G_YF], the phosphorylation enrichment rises from 0.816 to 6.23.

First: GSIQQYIFKQE [PRG4_Y1271_YF]
Second: LKVDVYGRSHK [FUT3_Y222]
The phosphorylation enrichment of the first is higher: 0.545 for the first, 0.379 for the second.

First: EHFSYYGMKAV [SLC15A2_Y61_R57H]
Second: PELIDYGKLRK [ACTN1_Y193]
The phosphorylation enrichment of the first is higher: 3.38 for the first, 0.404 for the second.

Work on PRAEWYRDDVL [MYOM2_Y317] yielded a phosphorylation enrichment of 0.546.

molecular target: MERTK (UniProt Q12866); assay: as above
Sequence (Q12866 whole entry, looked up): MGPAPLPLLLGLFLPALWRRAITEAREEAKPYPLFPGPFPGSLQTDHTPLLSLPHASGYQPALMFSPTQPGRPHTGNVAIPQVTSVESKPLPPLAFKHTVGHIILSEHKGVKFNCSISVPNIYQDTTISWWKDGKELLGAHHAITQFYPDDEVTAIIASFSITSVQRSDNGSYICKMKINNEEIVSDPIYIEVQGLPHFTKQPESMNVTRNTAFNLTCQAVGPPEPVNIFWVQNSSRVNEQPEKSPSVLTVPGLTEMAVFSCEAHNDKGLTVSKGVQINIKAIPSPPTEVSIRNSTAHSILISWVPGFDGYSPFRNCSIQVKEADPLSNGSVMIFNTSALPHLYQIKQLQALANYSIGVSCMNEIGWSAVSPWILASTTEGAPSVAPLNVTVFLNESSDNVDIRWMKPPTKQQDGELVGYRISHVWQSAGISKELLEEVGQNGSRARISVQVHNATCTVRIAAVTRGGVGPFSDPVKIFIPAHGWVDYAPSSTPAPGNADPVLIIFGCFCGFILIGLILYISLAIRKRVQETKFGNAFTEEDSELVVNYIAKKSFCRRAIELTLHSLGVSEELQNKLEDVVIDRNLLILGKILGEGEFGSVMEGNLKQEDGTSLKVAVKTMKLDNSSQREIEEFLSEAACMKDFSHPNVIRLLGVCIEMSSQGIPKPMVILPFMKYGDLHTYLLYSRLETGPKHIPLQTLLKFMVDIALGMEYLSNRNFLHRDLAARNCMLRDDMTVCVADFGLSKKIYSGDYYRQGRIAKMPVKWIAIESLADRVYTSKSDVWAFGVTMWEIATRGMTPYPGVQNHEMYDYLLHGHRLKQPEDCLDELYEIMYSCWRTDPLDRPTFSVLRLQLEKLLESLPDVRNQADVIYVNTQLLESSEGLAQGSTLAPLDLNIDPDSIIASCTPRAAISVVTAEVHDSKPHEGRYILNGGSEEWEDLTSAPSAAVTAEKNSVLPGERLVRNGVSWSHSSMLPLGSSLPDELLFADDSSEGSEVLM

Going from DRLASDLDKVR [KRT10_Y160_Y160D] to MDDKEYYSVHN [MET_Y1234_Y1230D], the phosphorylation enrichment rises from 0.362 to 0.373.

Going from ATHSRYRLNDF [CLDN14_Y233_G232R_YF] to VEQIHYIGQNE [HMOX2_Y140_R137Q], the phosphorylation enrichment rises from 0.391 to 0.408.

First: LVMFIYDIFGM [SCN1A_Y1684_A1685D]
Second: FSCLPYRRLAF [SLC52A2_Y305_G306R_YF]
The phosphorylation enrichment of the first is higher: 5.95 for the first, 0.531 for the second.

Compared with ESMLRYDVFGG [STOX1_Y607_E608D_YF], HNELYYEAAEH [VANGL1_Y345_E347A] is higher in phosphorylation enrichment: 2.37 for the first, 5.06 for the second.

Compared with SQPASYQRRFL [PPIG_Y320_L324F], VKPENYRRLDV [VHL_Y175_I180V] is lower in phosphorylation enrichment: 0.505 for the first, 0.465 for the second.

First: KLKRSYSSPDI [USP8_Y717]
Second: GTQGSYLLSRK [UGT3A1_Y123_C121G]
The phosphorylation enrichment of the first is lower: 0.43 for the first, 0.433 for the second.

First: KMKGDYFRFLA [YWHAG_Y130_YF]
Second: SNNFIYKTLGV [FAM83B_Y639_YF]
The phosphorylation enrichment of the first is higher: 0.632 for the first, 0.394 for the second.

Going from SVTGTYSPALN [TP53_Y126_C124G] to FSPGSYERETF [NF1_Y2192], the phosphorylation enrichment falls from 0.444 to 0.429.

Going from TQRPYYKGGGG [TYROBP_Y112] to SGETKYNPTEA [NBEAL2_Y2748_E2747K], the phosphorylation enrichment falls from 0.553 to 0.449.

First: YGCGMYSHLQG [LGR4_Y848_D844G]
Second: RRQDLYSARDL [SART1_Y249]
The phosphorylation enrichment of the first is higher: 5.25 for the first, 1.55 for the second.

First: ILGRYYETGSI [PAX2_Y73]
Second: KSRQIYDAYIM [GRK3_Y109_R104K]
The phosphorylation enrichment of the first is lower: 0.707 for the first, 6.9 for the second.

Going from KVALLYKPFFF [POLE_Y100_P99L_YF] to PIAPVYAASMV [ACAT1_Y331], the phosphorylation enrichment rises from 0.772 to 5.19.

Compared with IVEFAYNDKAV [PUM3_Y259_I264V_YF], PQQLWYTHEKK [UBTF_Y207] is lower in phosphorylation enrichment: 0.527 for the first, 0.361 for the second.

Compared with PVRIAYGRPRG [SUGP2_Y985_D986G], QGCGIYKDFFR [PLA2G2D_Y82_S80G_YF] is lower in phosphorylation enrichment: 0.606 for the first, 0.534 for the second.

Going from GSIQQYIFKQE [PRG4_Y1271_YF] to LKVDVYGRSHK [FUT3_Y222], the phosphorylation enrichment falls from 0.452 to 0.37.

Compared with EHFSYYGMKAV [SLC15A2_Y61_R57H], PELIDYGKLRK [ACTN1_Y193] is lower in phosphorylation enrichment: 2.35 for the first, 0.62 for the second.

PRAEWYRDDVL [MYOM2_Y317] showed a phosphorylation enrichment of 0.681.

molecular target: Hck (UniProt P08631); assay: as above
Sequence (P08631 whole entry, looked up): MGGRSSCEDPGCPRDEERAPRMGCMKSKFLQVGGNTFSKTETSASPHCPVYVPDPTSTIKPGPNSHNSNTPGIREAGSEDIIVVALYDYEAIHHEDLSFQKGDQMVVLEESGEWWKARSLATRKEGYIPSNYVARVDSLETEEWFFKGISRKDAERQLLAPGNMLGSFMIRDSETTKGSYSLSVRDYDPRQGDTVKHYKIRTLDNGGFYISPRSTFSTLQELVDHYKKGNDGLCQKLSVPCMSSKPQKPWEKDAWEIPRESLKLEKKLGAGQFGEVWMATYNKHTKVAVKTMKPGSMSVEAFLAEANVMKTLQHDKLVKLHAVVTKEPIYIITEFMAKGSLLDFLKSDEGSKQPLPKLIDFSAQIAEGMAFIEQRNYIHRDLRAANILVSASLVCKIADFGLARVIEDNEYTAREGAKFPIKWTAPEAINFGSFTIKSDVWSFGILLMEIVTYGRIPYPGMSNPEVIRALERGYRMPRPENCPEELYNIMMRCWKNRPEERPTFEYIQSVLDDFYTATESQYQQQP

Going from DRLASDLDKVR [KRT10_Y160_Y160D] to MDDKEYYSVHN [MET_Y1234_Y1230D], the phosphorylation enrichment rises from 0.425 to 0.619.

Going from ATHSRYRLNDF [CLDN14_Y233_G232R_YF] to VEQIHYIGQNE [HMOX2_Y140_R137Q], the phosphorylation enrichment rises from 0.449 to 0.461.

First: LVMFIYDIFGM [SCN1A_Y1684_A1685D]
Second: FSCLPYRRLAF [SLC52A2_Y305_G306R_YF]
The phosphorylation enrichment of the first is higher: 5.56 for the first, 0.432 for the second.

Compared with ESMLRYDVFGG [STOX1_Y607_E608D_YF], HNELYYEAAEH [VANGL1_Y345_E347A] is higher in phosphorylation enrichment: 0.619 for the first, 2.1 for the second.

Compared with SQPASYQRRFL [PPIG_Y320_L324F], VKPENYRRLDV [VHL_Y175_I180V] is lower in phosphorylation enrichment: 0.492 for the first, 0.387 for the second.

Going from KLKRSYSSPDI [USP8_Y717] to GTQGSYLLSRK [UGT3A1_Y123_C121G], the phosphorylation enrichment rises from 0.379 to 0.49.

Going from KMKGDYFRFLA [YWHAG_Y130_YF] to SNNFIYKTLGV [FAM83B_Y639_YF], the phosphorylation enrichment rises from 0.543 to 0.572.

Going from SVTGTYSPALN [TP53_Y126_C124G] to FSPGSYERETF [NF1_Y2192], the phosphorylation enrichment falls from 0.621 to 0.447.

First: TQRPYYKGGGG [TYROBP_Y112]
Second: SGETKYNPTEA [NBEAL2_Y2748_E2747K]
The phosphorylation enrichment of the first is lower: 0.377 for the first, 0.613 for the second.

First: YGCGMYSHLQG [LGR4_Y848_D844G]
Second: RRQDLYSARDL [SART1_Y249]
The phosphorylation enrichment of the first is lower: 4.44 for the first, 5.63 for the second.

First: ILGRYYETGSI [PAX2_Y73]
Second: KSRQIYDAYIM [GRK3_Y109_R104K]
The phosphorylation enrichment of the first is lower: 0.49 for the first, 8.38 for the second.

Going from KVALLYKPFFF [POLE_Y100_P99L_YF] to PIAPVYAASMV [ACAT1_Y331], the phosphorylation enrichment rises from 0.82 to 13.5.

First: IVEFAYNDKAV [PUM3_Y259_I264V_YF]
Second: PQQLWYTHEKK [UBTF_Y207]
The phosphorylation enrichment of the first is higher: 0.573 for the first, 0.496 for the second.

Compared with PVRIAYGRPRG [SUGP2_Y985_D986G], QGCGIYKDFFR [PLA2G2D_Y82_S80G_YF] is higher in phosphorylation enrichment: 1.25 for the first, 3.89 for the second.

First: GSIQQYIFKQE [PRG4_Y1271_YF]
Second: LKVDVYGRSHK [FUT3_Y222]
The phosphorylation enrichment of the first is lower: 0.537 for the first, 0.625 for the second.

Compared with EHFSYYGMKAV [SLC15A2_Y61_R57H], PELIDYGKLRK [ACTN1_Y193] is lower in phosphorylation enrichment: 3.42 for the first, 0.446 for the second.

Work on PRAEWYRDDVL [MYOM2_Y317] yielded a phosphorylation enrichment of 0.586.

molecular target: Jak2 (UniProt O60674); assay: as above
Sequence (O60674 whole entry, looked up): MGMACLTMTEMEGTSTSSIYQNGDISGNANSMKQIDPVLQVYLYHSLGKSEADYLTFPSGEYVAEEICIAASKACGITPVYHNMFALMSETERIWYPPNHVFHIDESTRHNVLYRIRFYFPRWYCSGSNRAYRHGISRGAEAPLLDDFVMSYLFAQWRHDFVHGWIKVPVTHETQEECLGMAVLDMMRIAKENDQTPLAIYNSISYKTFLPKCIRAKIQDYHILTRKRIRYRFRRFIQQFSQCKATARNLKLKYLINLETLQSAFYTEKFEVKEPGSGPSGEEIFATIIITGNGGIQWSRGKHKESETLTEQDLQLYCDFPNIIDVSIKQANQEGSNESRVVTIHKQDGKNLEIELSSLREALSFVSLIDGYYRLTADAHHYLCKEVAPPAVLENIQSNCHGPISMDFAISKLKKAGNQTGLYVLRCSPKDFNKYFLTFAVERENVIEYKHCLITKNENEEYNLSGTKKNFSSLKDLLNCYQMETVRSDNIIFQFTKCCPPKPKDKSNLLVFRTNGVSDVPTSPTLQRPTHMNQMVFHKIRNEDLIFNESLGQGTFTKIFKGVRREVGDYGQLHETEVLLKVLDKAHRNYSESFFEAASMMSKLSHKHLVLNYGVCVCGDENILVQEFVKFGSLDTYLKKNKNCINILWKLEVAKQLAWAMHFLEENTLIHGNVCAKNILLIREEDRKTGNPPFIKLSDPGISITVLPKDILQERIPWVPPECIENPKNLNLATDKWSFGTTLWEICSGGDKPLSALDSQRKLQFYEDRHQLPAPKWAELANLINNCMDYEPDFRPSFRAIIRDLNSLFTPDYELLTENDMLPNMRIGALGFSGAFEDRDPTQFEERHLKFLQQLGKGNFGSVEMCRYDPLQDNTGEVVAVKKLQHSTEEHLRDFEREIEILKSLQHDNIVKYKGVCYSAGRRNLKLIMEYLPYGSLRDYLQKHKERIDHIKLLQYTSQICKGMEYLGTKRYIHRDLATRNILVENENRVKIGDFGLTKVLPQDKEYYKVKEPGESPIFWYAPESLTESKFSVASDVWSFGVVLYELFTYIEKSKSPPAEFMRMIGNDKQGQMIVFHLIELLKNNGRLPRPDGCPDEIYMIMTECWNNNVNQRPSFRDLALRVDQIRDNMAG

First: DRLASDLDKVR [KRT10_Y160_Y160D]
Second: MDDKEYYSVHN [MET_Y1234_Y1230D]
The phosphorylation enrichment of the first is lower: 0.537 for the first, 1.03 for the second.

Going from ATHSRYRLNDF [CLDN14_Y233_G232R_YF] to VEQIHYIGQNE [HMOX2_Y140_R137Q], the phosphorylation enrichment rises from 0.413 to 0.547.

Going from LVMFIYDIFGM [SCN1A_Y1684_A1685D] to FSCLPYRRLAF [SLC52A2_Y305_G306R_YF], the phosphorylation enrichment falls from 1.72 to 0.806.

Compared with ESMLRYDVFGG [STOX1_Y607_E608D_YF], HNELYYEAAEH [VANGL1_Y345_E347A] is higher in phosphorylation enrichment: 0.91 for the first, 1.16 for the second.

Going from SQPASYQRRFL [PPIG_Y320_L324F] to VKPENYRRLDV [VHL_Y175_I180V], the phosphorylation enrichment falls from 0.631 to 0.463.

Compared with KLKRSYSSPDI [USP8_Y717], GTQGSYLLSRK [UGT3A1_Y123_C121G] is higher in phosphorylation enrichment: 0.524 for the first, 0.615 for the second.

Going from KMKGDYFRFLA [YWHAG_Y130_YF] to SNNFIYKTLGV [FAM83B_Y639_YF], the phosphorylation enrichment falls from 4.54 to 0.639.

First: SVTGTYSPALN [TP53_Y126_C124G]
Second: FSPGSYERETF [NF1_Y2192]
The phosphorylation enrichment of the first is higher: 0.835 for the first, 0.763 for the second.

Compared with TQRPYYKGGGG [TYROBP_Y112], SGETKYNPTEA [NBEAL2_Y2748_E2747K] is higher in phosphorylation enrichment: 0.537 for the first, 0.848 for the second.

Compared with YGCGMYSHLQG [LGR4_Y848_D844G], RRQDLYSARDL [SART1_Y249] is lower in phosphorylation enrichment: 0.723 for the first, 0.663 for the second.

First: ILGRYYETGSI [PAX2_Y73]
Second: KSRQIYDAYIM [GRK3_Y109_R104K]
The phosphorylation enrichment of the first is higher: 0.643 for the first, 0.581 for the second.

Compared with KVALLYKPFFF [POLE_Y100_P99L_YF], PIAPVYAASMV [ACAT1_Y331] is higher in phosphorylation enrichment: 1.12 for the first, 1.34 for the second.

First: IVEFAYNDKAV [PUM3_Y259_I264V_YF]
Second: PQQLWYTHEKK [UBTF_Y207]
The phosphorylation enrichment of the first is higher: 0.968 for the first, 0.802 for the second.

First: PVRIAYGRPRG [SUGP2_Y985_D986G]
Second: QGCGIYKDFFR [PLA2G2D_Y82_S80G_YF]
The phosphorylation enrichment of the first is higher: 1.18 for the first, 1.17 for the second.

Compared with GSIQQYIFKQE [PRG4_Y1271_YF], LKVDVYGRSHK [FUT3_Y222] is higher in phosphorylation enrichment: 0.508 for the first, 0.588 for the second.

Compared with EHFSYYGMKAV [SLC15A2_Y61_R57H], PELIDYGKLRK [ACTN1_Y193] is lower in phosphorylation enrichment: 9.46 for the first, 0.368 for the second.

Sequence PRAEWYRDDVL [MYOM2_Y317] has a phosphorylation enrichment of 1.11.
